The subject of data set [1] is HeLa Kyoto. Briefly: solubility change mitosis vs G1/S (difference of NP-40 vs SDS log2 ratios) (log2 ratio difference); higher = more soluble in mitosis.
For data set [2], the system named is HeLa Kyoto. Briefly: thermal stability score vs G1/S (z-score of summed log2 fold changes over temperatures); higher = more thermally stable than in G1/S.
Data set [3] has as its system HeLa Kyoto. Briefly: solubility in G1/S (NP-40 vs SDS abundance) (log2 ratio); higher = more soluble. The settings on record: cell cycle stage: G1/S.
For data set [4], the system named is HeLa Kyoto. As to the kind of experiment: melting temperature (median over replicates), in situ; higher = more thermally stable.
Setting [5] is: cell cycle stage: early G1 (4.5 h after nocodazole release).

We go through 4 sequences from the supplement of paper PMC5998384.
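Wherever melting temperature (median over replicates), in situ is given: HeLa Kyoto cells synchronized by double thymidine or nocodazole block, proteins quantified by TMT10plex mass spectrometry, three independent biological replicates.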
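Wherever solubility change mitosis vs G1/S (difference of NP-40 vs SDS log2 ratios) is given: synchronized HeLa Kyoto cells (double thymidine block for G1/S, nocodazole release for mitosis), protein amounts in NP-40 versus SDS lysates quantified by mass spectrometry, three biological replicates.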
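Wherever solubility in G1/S (NP-40 vs SDS abundance) is given: HeLa Kyoto cells arrested at G1/S by double thymidine block, proteins quantified by TMT10plex mass spectrometry in mild NP-40 versus SDS extracts, three biological replicates.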
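Wherever thermal stability score vs G1/S (z-score of summed log2 fold changes over temperatures) is given: synchronized HeLa Kyoto cells, proteins quantified by TMT10plex mass spectrometry, three biological replicates, mitosis taken 0.5 h after nocodazole release, G1/S directly after double thymidine block.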

“MASGVTVNDEVIKVFNDMKVRKSSTQEEIKKRKKAVLFCLSDDKRQIIVEEAKQILVGDIGDTVEDPYTSFVKLLPLNDCRYALYDATYETKESKKEDLVFIFWAPESAPLKSKMIYASSKDAIKKKFTGIKHEWQVNGLDDIKDRSTLGEKLGGNVVVSLEGKPL [CFL2]”: the “solubility change mitosis (log2)” value with HeLa Kyoto [1] was -0.058. Moreover, the thermal stability score is -0.937 with HeLa Kyoto [2] (setting [5]) and -3.81 in the data set on HeLa Kyoto [2] (cell cycle stage: mitosis). Also, in the data set on HeLa Kyoto [3], the “solubility in G1/S (log2)” value is 0.129. The melting temperature in the data set on HeLa Kyoto [4] (cell cycle stage: G1/S) turned out to be 55.1 °C; with HeLa Kyoto [4] (cell cycle stage: mitosis), 54.2 °C.
Regarding “MASILDEYENSLSRSAVLQPGCPSVGIPHSGYVNAQLEKEVPIFTKQRIDFTPSERITSLVVSSNQLCMSLGKDTLLRIDLGKANEPNHVELGRKDDAKVHKMFLDHTGSHLLIALSSTEVLYVNRNGQKVRPLARWKGQLVESVGWNKALGTESSTGPILVGTAQGHIFEAELSASEGGLFGPAPDLYFRPLYVLNEEGGPAPVCSLEAERGPDGRSFVIATTRQRLFQFIGRAAEGAEAQGFSGLFAAYTDHPPPFREFPSNLGYSELAFYTPKLRSAPRAFAWMMGDGVLYGALDCGRPDSLLSEERVWEYPEGVGPGASPPLAIVLTQFHFLLLLADRVEAVCTLTGQVVLRDHFLEKFGPLKHMVKDSSTGQLWAYTERAVFRYHVQREARDVWRTYLDMNRFDLAKEYCRERPDCLDTVLAREADFCFRQRRYLESARCYALTQSYFEEIALKFLEARQEEALAEFLQRKLASLKPAERTQATLLTTWLTELYLSRLGALQGDPEALTLYRETKECFRTFLSSPRHKEWLFASRASIHELLASHGDTEHMVYFAVIMQDYERVVAYHCQHEAYEEALAVLARHRDPQLFYKFSPILIRHIPRQLVDAWIEMGSRLDARQLIPALVNYSQGGEVQQVSQAIRYMEFCVNVLGETEQAIHNYLLSLYARGRPDSLLAYLEQAGASPHRVHYDLKYALRLCAEHGHHRACVHVYKVLELYEEAVDLALQVDVDLAKQCADLPEEDEELRKKLWLKIARHVVQEEEDVQTAMACLASCPLLKIEDVLPFFPDFVTIDHFKEAICSSLKAYNHHIQELQREMEEATASAQRIRRDLQELRGRYGTVEPQDKCATCDFPLLNRPFYLFLCGHMFHADCLLQAVRPGLPAYKQARLEELQRKLGAAPPPAKGSARAKEAEGGAATAGPSREQLKADLDELVAAECVYCGELMIRSIDRPFIDPQRYEEEQLSWL [VPS18]”, the “solubility change mitosis (log2)” value in the data set on HeLa Kyoto [1] was -0.0584. Further, the thermal stability score in the data set with HeLa Kyoto [2] (setting [5]) was determined as 0.54; in the data set with HeLa Kyoto [2] (cell cycle stage: mitosis) it was 1.02. Moreover, in the data set on HeLa Kyoto [3], the “solubility in G1/S (log2)” value was -0.115. The melting temperature was 50.1 °C in the data set with HeLa Kyoto [4] (cell cycle stage: G1/S) and 49.5 °C with HeLa Kyoto [4] (cell cycle stage: mitosis).
In the case of “MASILLRSCRGRAPARLPPPPRYTVPRGSPGDPAHLSCASTLGLRNCLNVPFGCCTPIHPVYTSSRGDHLGCWALRPECLRIVSRAPWTSTSVGFVAVGPQCLPVRGWHSSRPVRDDSVVEKSLKSLKDKNKKLEEGGPVYSPPAEVVVKKSLGQRVLDELKHYYHGFRLLWIDTKIAARMLWRILNGHSLTRRERRQFLRICADLFRLVPFLVFVVVPFMEFLLPVAVKLFPNMLPSTFETQSLKEERLKKELRVKLELAKFLQDTIEEMALKNKAAKGSATKDFSVFFQKIRETGERPSNEEIMRFSKLFEDELTLDNLTRPQLVALCKLLELQSIGTNNFLRFQLTMRLRSIKADDKLIAEEGVDSLNVKELQAACRARGMRALGVTEDRLRGQLKQWLDLHLHQEIPTSLLILSRAMYLPDTLSPADQLKSTLQTLPEIVAKEAQVKVAEVEGEQVDNKAKLEATLQEEAAIQQEHREKELQKRSEVAKDFEPERVVAAPQRPGTEPQPEMPDTVLQSETLKDTAPVLEGLKEEEITKEEIDILSDACSKLQEQKKSLTKEKEELELLKEDVQDYSEDLQEIKKELSKTGEEKYVEESKASKRLTKRVQQMIGQIDGLISQLEMDQQAGKLAPANGMPTGENVISVAELINAMKQVKHIPESKLTSLAAALDENKDGKVNIDDLVKVIELVDKEDVHISTSQVAEIVATLEKEEKVEEKEKAKEKAEKEVAEVKS [LETM1]”, the “solubility change mitosis (log2)” value with HeLa Kyoto [1] was -0.0749. Besides, the thermal stability score in the data set with HeLa Kyoto [2] (setting [5]) is -0.277; with HeLa Kyoto [2] (cell cycle stage: mitosis), -1.56. In the data set on HeLa Kyoto [3], the “solubility in G1/S (log2)” value amounted to 0.088. In addition, the melting temperature in the data set with HeLa Kyoto [4] (cell cycle stage: G1/S) turned out to be 52.9 °C; in the data set with HeLa Kyoto [4] (cell cycle stage: mitosis), 52.3 °C.
For the sequence “MASIWVGHRGTVRDYPDFSPSVDAEAIQKAIRGIGTDEKMLISILTERSNAQRQLIVKEYQAAYGKELKDDLKGDLSGHFEHLMVALVTPPAVFDAKQLKKSMKGAGTNEDALIEILTTRTSRQMKDISQAYYTVYKKSLGDDISSETSGDFRKALLTLADGRRDESLKVDEHLAKQDAQILYKAGENRWGTDEDKFTEILCLRSFPQLKLTFDEYRNISQKDIVDSIKGELSGHFEDLLLAIVNCVRNTPAFLAERLHRALKGIGTDEFTLNRIMVSRSEIDLLDIRTEFKKHYGYSLYSAIKSDTSGDYEITLLKICGGDD [ANXA3]”, the “solubility change mitosis (log2)” value with HeLa Kyoto [1] is -0.0404. Besides, the thermal stability score in the data set on HeLa Kyoto [2] (setting [5]) is -0.635; in the data set on HeLa Kyoto [2] (cell cycle stage: mitosis) it was -1.21. In the data set with HeLa Kyoto [3], the “solubility in G1/S (log2)” value was 0.2. Moreover, the melting temperature with HeLa Kyoto [4] (cell cycle stage: G1/S) turned out to be 52.3 °C; in the data set on HeLa Kyoto [4] (cell cycle stage: mitosis), 52.2 °C.
